Data taken from PMC9890229.

How the values were obtained:
[1] = molecular target: Pseudomonas aeruginosa Hfq (Pseudomonas aeruginosa) (UniProt Q9HUM0)
[2] = molecular target: Crc R90E,Y91F (Flag-tagged, from pME4510crc(R90E,Y91F)Flag) (Pseudomonas aeruginosa) (UniProt Q51380)
[3] = molecular target: Hfq (Pseudomonas aeruginosa) (UniProt Q9HUM0); test: EMSA; conditions: EMSA: 20 mM Tris-HCl pH 8.0, 40 mM NaCl, 10 mM KCl, 1 mM MgCl2; 200 nM RNA; 15 min at 37 C; 4% PAA gel in 1x TBE at 4 C, SYBR gold

Crc R90E,Y91F (Flag-tagged, from pME4510crc(R90E,Y91F)Flag) (from UniProt Q51380 1-259) (natural protein)
de-repression of translation of the amiE+60::lacZ reporter gene (β-galactosidase activity) in P. aeruginosa PAO1Δcrc [1]: 7 fold | de-repression of translation of the estA+18::lacZ reporter gene (β-galactosidase activity) in P. aeruginosa PAO1Δcrc [1]: 2 fold | translational repression of the rbsB+13::lacZ reporter gene (β-galactosidase activity) in P. aeruginosa PAO1Δcrc [2]: 2 fold

GGAACGCAAACGUUUGCGUCUGGAUAAUCUCCUGGAAAAGCCUCAAUACAACGAUAAGAAAAGCUGGAGGAUACACCAUGAAGCGGGUCGCUUCCCGGCGCCUGUUGGCU [rbsB110]
binding [3]: binds

GGCUGAGGAGGCUUUACGACGGGCCCCGGGGCGCAUGCCGACGACGCGGCGGCCCGACAAUAAAAACAAAUCAUGGAGUAAGAGAAUGAUCAGAAUGGCGCUCAAGCCACUGGUAGCG [estA118]
binding [3]: binds

GGGCCUUUUUUCGUCCCGAAAAAAUAACAACAAGAGGUGAUAUCCAUGCGUCACGGCGAUAUUUCCAGCAGCAACGACACCGUCGGAGUGGCGGUGGUCAACUAC [amiE105]
binding [3]: binds
